Measured values from the supplement of paper PMC7877785.
± gives the uncertainty stated by the source.

Test: self-splicing fitness, log relative to wild type (ln ratio); higher = more splicing; Tetrahymena group I intron in knt gene, E. coli kanamycin selection, DiMSum; sequences stand for … in CUCUCU…GGAGGGAAAAGUUAUCAGGCAUGCACCUGGUAGCUAGUCUUUAAACCAAUAGAUUGCAUCGGUUUAAAAGGCAAGACCGUCAAAUUGCGGGAAAGGGGUCAACAGCCGUUCAGUACCAAGUCUCAGGGGAAACUUUGAGAUGGCCUUGCAAAGGGUAUGGUAAUAAGCUGACGGACAUGGUCCUAACCACGCAGCCAAGUCCUAAGUCAACAGAUCUUCUGUUGAUAUGGAUGCAGUUCACAGACUAAAUGUCGGUCGGGGAAGAUGUAUUCUUCUCAUAAGAUAUAGUCGGACCUCUCCUUAAUGGGAGCUAGCGGAUGAAGUGAUGCAACACUGGAGCCGCUGGGAACUAAUUUGUAUGCGAAAGUAUAUUGAUUAGUUUUGGAGUACUCGUGGUCG
How it was run: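 Pooled colonies went to amplicon sequencing on an Illumina HiSeq 2500 after six replicate transformations. The plates were LB agar with 100 μg/mL carbenicillin, 50 μM IPTG and 0.2% rhamnose, with or without 25 μg/mL kanamycin, incubated overnight at 37°C or 30°C. The E. coli BL21(DE3) library had all eight P1ex-region intron nucleotides randomised, the intron placed in the knt kanamycin-resistance gene on pET-22b(+). DiMSum fitness is the error-weighted combination of replicate fold changes, kanamycin against none, normalised to wild type.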

Sequence	self-splicing fitness (ln) (30 °C)	self-splicing fitness (ln) (37 °C)
AAAAAGCAAUAUUACGAACU	-0.488 ± 0.07	-0.079 ± 0.087
AAAAAGCAAUAUUACGAAUA	-1.42 ± 0.1	-0.458 ± 0.095
AAAAAGCAAUAUUACGACAG	-1.17 ± 0.066	-0.774 ± 0.088
AAAAAGCAAUAUUACGAGUC	-3.46 ± 0.22	-1.28 ± 0.19
AAAAAGCAAUAUUACGAUGC	-1.66 ± 0.091	-0.868 ± 0.11
AAAAAGCAAUAUUACGCACG	-1.4 ± 0.094	-0.508 ± 0.14
AAAAAGCAAUAUUACGCCAC		-2.91 ± 0.47
AAAAAGCAAUAUUACGCCCA	-0.382 ± 0.12	-0.253 ± 0.16
AAAAAGCAAUAUUACGCUGG	-1.73 ± 0.11	-0.618 ± 0.13
AAAAAGCAAUAUUACGGCGU	-0.321 ± 0.078	0.208 ± 0.098
AAAAAGCAAUAUUACGGGGG	-3.27 ± 0.17	-2.76 ± 0.18
AAAAAGCAAUAUUACGGUAG	-3.38 ± 0.21	-1.45 ± 0.15
AAAAAGCAAUAUUACGGUUC	-2.7 ± 0.18	-1.81 ± 0.21
AAAAAGCAAUAUUACGUAAU	-1.4 ± 0.063	-0.916 ± 0.085
AAAAAGCAAUAUUACGUACG	-1.1 ± 0.055	-0.101 ± 0.076
AAAAAGCAAUAUUACGUAGU	-2.1 ± 0.076	-1.69 ± 0.091
AAAAAGCAAUAUUACGUAUC	-2.37 ± 0.089	-1.5 ± 0.12
AAAAAGCAAUAUUACGUCCU	0.148 ± 0.065	0.294 ± 0.079
AAAAAGCAAUAUUACGUGAU	-2.07 ± 0.072	-0.588 ± 0.09
AAAAAGCAAUAUUACGUGUA	-1.78 ± 0.089	-1.33 ± 0.085
AAAAAGCAAUAUUACGUGUG	-1.57 ± 0.049	-1.27 ± 0.069
AAACAGCAAUAUUACGAACA	-1.78 ± 0.09	-0.635 ± 0.084
AAACAGCAAUAUUACGAAGA	-2.29 ± 0.12	-1.55 ± 0.11
AAACAGCAAUAUUACGACAA	-0.939 ± 0.095	-0.417 ± 0.11
AAACAGCAAUAUUACGACCC	-0.763 ± 0.11	0.302 ± 0.13

Sequence	self-splicing fitness (ln) (30 °C)	self-splicing fitness (ln) (37 °C)
AAACAGCAAUAUUACGACGU	-0.232 ± 0.045	0.39 ± 0.052
AAACAGCAAUAUUACGAGGG	-3.69 ± 0.15	-2.33 ± 0.15
AAACAGCAAUAUUACGAGUC	-3.55 ± 0.14	-2.38 ± 0.14
AAACAGCAAUAUUACGAUCA	-0.774 ± 0.07	-0.178 ± 0.065
AAACAGCAAUAUUACGAUUA	-1.16 ± 0.092	-0.343 ± 0.094
AAACAGCAAUAUUACGAUUC	-2.04 ± 0.1	0.0665 ± 0.091
AAACAGCAAUAUUACGCCCC	-1.63 ± 0.15	-0.801 ± 0.19
AAACAGCAAUAUUACGCCCG	-1.35 ± 0.27	-0.868 ± 0.32
AAACAGCAAUAUUACGCUAC	-3.84 ± 0.2	-3.56 ± 0.24
AAACAGCAAUAUUACGCUAU	-1.87 ± 0.1	-2.23 ± 0.16
AAACAGCAAUAUUACGCUCA	-0.43 ± 0.081	0.168 ± 0.1
AAACAGCAAUAUUACGCUGU	-3.85 ± 0.14	-1.89 ± 0.096
AAACAGCAAUAUUACGGAAC	-3.5 ± 0.16	-4.05 ± 0.28
AAACAGCAAUAUUACGGAGU	-3.77 ± 0.16	-2.53 ± 0.11
AAACAGCAAUAUUACGGCCC	-2.15 ± 0.2	-0.625 ± 0.23
AAACAGCAAUAUUACGGCGU	-0.571 ± 0.053	-0.336 ± 0.063
AAACAGCAAUAUUACGGGGC	-3.85 ± 0.16	-3.51 ± 0.19
AAACAGCAAUAUUACGGGGU	-3.07 ± 0.11	-2.6 ± 0.14
AAACAGCAAUAUUACGUAGU	-1.64 ± 0.054	-1.62 ± 0.077
AAACAGCAAUAUUACGUCGG	-2.8 ± 0.11	-1.13 ± 0.11
AAACAGCAAUAUUACGUCGU	-2.13 ± 0.071	-0.661 ± 0.071
AAACAGCAAUAUUACGUGGA	-3.1 ± 0.14	-1.95 ± 0.1
AAAGAGCAAUAUUACGAAUG	-2.69 ± 0.2	
AAAGAGCAAUAUUACGACAC	-2.67 ± 0.29	-1.89 ± 0.41
AAAGAGCAAUAUUACGAGAG	-3.36 ± 0.19	-3.42 ± 0.21

Sequence	self-splicing fitness (ln) (30 °C)	self-splicing fitness (ln) (37 °C)
AAAGAGCAAUAUUACGAGCA	-2.83 ± 0.39	-2.26 ± 0.42
AAAGAGCAAUAUUACGAGGC	-3.57 ± 0.24	-2.74 ± 0.28
AAAGAGCAAUAUUACGAUGC	-2.54 ± 0.2	-1.96 ± 0.27
AAAGAGCAAUAUUACGCAAG	-3.4 ± 0.19	-3.51 ± 0.36
AAAGAGCAAUAUUACGCAGU	-3.46 ± 0.2	-1.71 ± 0.17
AAAGAGCAAUAUUACGCGAC	-2.55 ± 0.2	-0.998 ± 0.14
AAAGAGCAAUAUUACGCUCA		-0.771 ± 0.37
AAAGAGCAAUAUUACGGAGG	-3.48 ± 0.22	-2.3 ± 0.23
AAAGAGCAAUAUUACGGAUC	-2.89 ± 0.2	-2.56 ± 0.15
AAAGAGCAAUAUUACGGCGA	-1.65 ± 0.22	-1.26 ± 0.3
AAAGAGCAAUAUUACGGGCA	-2.45 ± 0.2	-1.42 ± 0.24
AAAGAGCAAUAUUACGGUGU	-4.54 ± 0.28	-2.87 ± 0.21
AAAGAGCAAUAUUACGUACA	-3.37 ± 0.28	-1.71 ± 0.23
AAAGAGCAAUAUUACGUAUA	-3.45 ± 0.37	-1.89 ± 0.32
AAAGAGCAAUAUUACGUCAA	-3.31 ± 0.18	-2.61 ± 0.19
AAAGAGCAAUAUUACGUCAC	-2.56 ± 0.5	-2.76 ± 0.31
AAAGAGCAAUAUUACGUCGG	-3.89 ± 0.24	-1.71 ± 0.2
AAAGAGCAAUAUUACGUGCG	-2.69 ± 0.12	-1.82 ± 0.13
AAAGAGCAAUAUUACGUGGG	-3.99 ± 0.18	-3.8 ± 0.2
AAAGAGCAAUAUUACGUUCU	-2.77 ± 0.13	-1.72 ± 0.13
AAAGAGCAAUAUUACGUUGC	-3.79 ± 0.39	-1.93 ± 0.23
AAAGAGCAAUAUUACGUUUU	-2.46 ± 0.11	-1.91 ± 0.12
AAAUAGCAAUAUUACGAAGA	-2.26 ± 0.26	-1.1 ± 0.17
AAAUAGCAAUAUUACGACAU	-0.145 ± 0.012	0.051 ± 0.032
AAAUAGCAAUAUUACGACUC	-0.664 ± 0.17	-0.335 ± 0.21
